The values below are quoted from earlier work in paper PMC2646799.

As a reminder, the Kd is the free concentration of one partner at which half of the binding sites on the other are occupied at equilibrium, for simple one-to-one binding.

This data set concerns the target histone H3 acetyl-K9 peptide (Homo sapiens) (UniProt P68431).

Regarding Polybromo-1 BrD3 (from UniProt Q86U86), the Kd was 1000 nM.
